B1: CPEB3 Ribozyme (parent)
chain: UAACAGGGGGCCACAGCAGAAGCGUUCACGUCGCAGCCCCUGUCAGAUUCUGGUGAAUCUGCGAAUUCUGCUGUAUAUCUC

The data set covers variants of B1. Briefly: self-cleavage, relative activity (ratio to wild type); higher = more cleavage; in vitro, sequencing. Put shortly:
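Relative activity compares each variant's cleaved/total read fraction with that of the unmutated ribozyme. To get these fractions, barcoded CPEB3 ribozyme libraries from rounds of error-prone PCR were transcribed with T7 RNA polymerase for 5 hours at 37°C and then given 15 min of DNase I treatment before EDTA was added. The RNAs were reverse transcribed with template switching and sequenced on Illumina, and DNA sequencing linked barcodes to variants. A minimum of 5 reads applied, and three batches were averaged.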
As for UAACAGGGGGCCACUGCAGAAGCGUUCACGUCGCAGCCCCUGUGAGAUUCUGGUGAAUCUGCGAAUUCUGCUGUAUAUCUC [A15U C44G], the self-cleavage turned out to be 0.31.

With UAACAGGUAGCCACAGCAGAAGCGUUCACGUCGCAGCCCCUGUCAGAUUCUGGUGAAUCUGCGAAUUCUGCUGUAUAUCUC [G8U G9A], the self-cleavage was 0.33.

As for UAACAGGGGGCCACAGCAGAAGCGUUCACGUCGCAGCCCCUGUCAGAUUCUGGUGAAUCUGCGAAUUCAGCUGUAGAUCUC [U69A U76G], the self-cleavage was found to be 0.7.

For UAACAGGGGGCAACAGCAGAAGCGUUCACGUCGCAGCCCCUGUCAGAUUCUGGUCAAUCUGCGAAUUCUGCUGUAUAUCUC [C12A G55C], the self-cleavage turned out to be 0.78.

UAACAGGGGGCCACAGCAGAAGCGUUCACGUCGCAGCCCCUGUCAGAUUCUGGUGAAUCUGCGAAUUCUGCGGCAUAUCUC [U72G U74C]: the self-cleavage amounted to 1.04.

With UAACAGGGGGCCACAGCAGAAGCGUUCACGUCGCAGCCCCUGUCAGACUCUGGUGAAUCUGCGGAUUCUGCUGUAUAUCUC [U48C A64G], the self-cleavage was 0.41.

With UAACAGGGGGCCACAGCAGAAGCGUUCACGUCGCAGCCCCUAUCAGAUACUGGUGAAUCUGCGAAUUCUGCUGUAUAUCUC [G42A U49A], the self-cleavage was 0.21.

For the variant UAACAGGGGGCCACAGCAGAAGCGUUGACGUCGCAGCCCCUGUCAGAUUCUGGUGAAUCUGCGAAUUCGGCUGUAUAUCUC [C27G U69G], the self-cleavage turned out to be 0.14.

Take UAACAGGGGGCCACAGCAGAAGCGUCCACGUCGCAGCCCCUGUCAGAUUCUGGUGAAUCUGCGAAUUCUGCUGUAUAUCGC [U26C U80G]: the self-cleavage is 0.54.

UAACAGGGGGCCACAGCAGAAGCGUUCGCGUCGCAGCCCCUGUCAGAUUCUGGUGAAUCUGCGAAUUCUGCUGAAUAUCUC [A28G U74A]: the self-cleavage came out at 1.06.

As for UAACAGGGGGCCACAGCGGAAGCGUUCACGUCGCAGCCCCUGUCAGAUUCUGGUGAAUCUGCGAAUUCUGCUGUAUAACUC [A18G U78A], the self-cleavage was 0.82.

UAACAGGGGGCCACGGCAGAAGCGUUCACGUCGCAGCCCCUGUCAGAUGCUGGUGAAUCUGCGAAUUCUGCUGUAUAUCUC [A15G U49G]: the self-cleavage came to 0.52.

On to UAACAGGGGGCCACAGCAGAAGCGUUUACGUCGCAGCCCCUGUCAGAUUCUGGUGAAUCUGCGAAUUCUGCUGUAUAGCUC [C27U U78G], for which the self-cleavage came to 0.38.

Consider UAACAGGGGGCCACAGCAGGAGCGUUCACGUCGCAGCCCCUGUCAGAUUCUGGUGAAUCAGCGAAUUCUGCUGUAUAUCUC [A20G U60A], for which the self-cleavage was found to be 0.35.

Consider UAACAGGGGGCCACAGCAGAAGCGUUCACGUCGCAGCCCCUGUCAGAAUCUGGUGAAUCUGCGAAUUCGGCUGUAUAUCUC [U48A U69G], for which the self-cleavage turned out to be 0.34.

Consider UAACAGGGGGCCACAGCAGAAGCGUGCACGUCGGAGCCCCUGUCAGAUUCUGGUGAAUCUGCGAAUUCUGCUGUAUAUCUC [U26G C34G], for which the self-cleavage stood at 0.07.

As for UAACAGGGGGCCACAGCAGAAGCGUUCACGUCGCAGCCCCGGCCAGAUUCUGGUGAAUCUGCGAAUUCUGCUGUAUAUCUC [U41G U43C], the self-cleavage amounted to 0.33.

As for UAACAGGGGGCCACAGCAGAAGCGUUCACGUCGCGACCCCUGUCAGAUUCUGGUGAAUCUGCGAAUUCUGCUGUAUAUCUC [A35G G36A], the self-cleavage worked out at 0.92.

As for UAACAGGGGGCCACAGCAGAAGCGUUCACGGCGCAGCCCCAGUCAGAUUCUGGUGAAUCUGCGAAUUCUGCUGUAUAUCUC [U31G U41A], the self-cleavage is 0.29.

Take UAACAGGGGGCCACAGCAGAAGCGUUCACGUCGUUGCCCCUGUCAGAUUCUGGUGAAUCUGCGAAUUCUGCUGUAUAUCUC [C34U A35U]: the self-cleavage turned out to be 0.27.

As to UAACGGGGGGCCACAGCAGAAGCGUUCACGUCGCAGCCCCUGUCAGAUUCUGGUGAAUCUGCGAAUUCUGCUAUAUAUCUC [A5G G73A], the self-cleavage was determined as 1.17.

For UAACAGGGGGCCACAGCAGAAGCGUUCACGUCGCAGCCCCUGCCAGAUUCUGGUGAAUCUGCGAAUUUUGCUGUAUAUCUC [U43C C68U], the self-cleavage was 0.32.

Consider UAACAGGGGGCCACAGUAGAAGCGUUCACGUCGCAGCCCCUGUCAGAUUCUGGUGAAUCUGCGAAUUCUGCAGUAUAUCUC [C17U U72A], for which the self-cleavage is 0.21.

Regarding UAACAGGGGGCCACAGUAGAAGCGUUCACGUCGCAGCCCCUGUCAUAUUCUGGUGAAUCUGCGAAUUCUGCUGUAUAUCUC [C17U G46U], the self-cleavage came to 0.23.

UAACAAGGGGCCACAGCAGAAGCGUUCACGUCGCAGCCCCUGUCAGAUUCUGGUGAAUCUGAGAAUUCUGCUGUAUAUCUC [G6A C62A]: the self-cleavage was 0.16.

Turning to UAACAAGGGGCCACAGCAGAAGCGUUCACGUCGCAGCCCCUGUCAGAUUCUGGUGAAUCUGUGAAUUCUGCUGUAUAUCUC [G6A C62U], the self-cleavage came to 0.25.

On to UAACAGGGGGCCACAGCAGAAGCGUACACGUCGCAGCCCCUGUCAGAUUCUGGUGAAUCUGCGAAGUCUGCUGUAUAUCUC [U26A U66G], for which the self-cleavage was 0.42.

On to CAACAGGGGGCCACAGCAGAAGCGUUCACGUCGCAGCCCCUGUCAGAUUCUGGUGAAUCUGUGAAUUCUGCUGUAUAUCUC [U1C C62U], for which the self-cleavage turned out to be 0.32.

Consider UAACAGUGGGCCACAGCAGAAGCGUUCACGUCGCAGCCCCUGUCAGAUUCUGGUGAAUCUGCGAAUUCUGCUGUAUAUAUC [G7U C79A], for which the self-cleavage was 0.28.

With UAACAGGGGGCCACGGCAGAAGCGUUCACGUCGCAGCCCCUGUCAGAUUCUGGUGAAUCUGCGAAUUCUGCUGUAUAUCUG [A15G C81G], the self-cleavage was determined as 1.09.

In the case of UAACAGGGGGCCACAGCAGAAGCGUUCACGUCGCAGCCCGUGUCAGAUUCUGGUGUAUCUGCGAAUUCUGCUGUAUAUCUC [C40G A56U], the self-cleavage was 0.42.

Consider UAACAGUGGGCCACAGCAGAAGCGUUCACGCCGCAGCCCCUGUCAGAUUCUGGUGAAUCUGCGAAUUCUGCUGUAUAUCUC [G7U U31C], for which the self-cleavage was found to be 0.15.

For the variant UAACAGGGGGCCACAGCAGAACCGUUCACGUCGCGGCCCCUGUCAGAUUCUGGUGAAUCUGCGAAUUCUGCUGUAUAUCUC [G22C A35G], the self-cleavage stood at 0.32.

Consider UAUCAGGGGGCCGCAGCAGAAGCGUUCACGUCGCAGCCCCUGUCAGAUUCUGGUGAAUCUGCGAAUUCUGCUGUAUAUCUC [A3U A13G], for which the self-cleavage stood at 0.89.

For the origin of these results see the RNAGym collection of RNA variant scans (doi:10.1093/nar/gkz1192).
